Substitutions are numbered along the chain they refer to. In names and notes the source's numbering stands.
Columns and labels:
[^3H]NECA-bound A2AR = Thermostability assay of detergent-solubilised receptor with [3H]NECA bound (ligand plus format); assay type: physicochemical, human
Method: […]. After solubilisation in DDM, A2AR was bound to Ni^2+-NTA resin, washed to reduce the DDM concentration and then eluted (see Methods). […]. An aliquot of E. coli cells (14 mL) was thawed on ice and resupended in 500 μL of buffer A [50 mM Tris–HCl (pH 7.4), 0.4 M NaCl, 250 μg/mL lysozyme (Sigma) and 1 mg/mL DNase I (Sigma), supplemented with complete ethylenediaminetetraacetic acid (EDTA)-free Protease inhibitor cocktail (Roche)] and incubated for 1 h at 4 °C. Samples were then sonicated for 1 min at 4 °C using a cup-horn sonicator. The receptors were solubilised by adding 1% DDM and incubated for 1 h at 4 °C. Insoluble material was removed by centrifugation (5 min, 13,000g, 4 °C). The solubilised receptors were partially purified with Ni-NTA agarose (Qiagen). Agarose beads (300 μL) pre-equilibrated in buffer A were added to 700 μL of solubilised receptor. […].
(§1) The sample was incubated for 45 min at 4 °C, then 30 min at the specified temperature and then 30 min at 4 °C. Receptor-bound and free radioligands were separated as previously described on mini gel-filtration columns.[26] Receptor-bound ligands were transferred to a 96-well plate (PerkinElmer) and mixed with 200 μL of Optiphase supermix (PerkinElmer). The bound ^3H-labeled ligand was determined using a 1450 Microbeta Trilux counter (1 min per sample).
For all the thermostabilisation studies carried out in our laboratory, the apparent Tm is the temperature for which 50% of the solubilised receptor remains folded after 30 min of incubation. The rate constant of the protein denaturation is a function of the temperature, and consequently, thermal denaturation of a protein can be compared to a chemical reaction for which the rate of the reaction is dependant on the temperature. Arrhenius established that any chemical reaction is temperature dependant. […]. The reference measurement representing the total binding activity of the sample A0 was considered to be measured at 4 °C. From the graphical representation t = Log10(t1/2) (Fig. 2c), we could extract a half-life for each construct at any temperature to define the improvement in stability of the various mutants compared to WT A2AR.

[^3H]ZM241385-bound A2AR = Thermostability assay of detergent-solubilised receptor with [3H]ZM241385 bound; assay type: physicochemical, human; conditions: for Binding of [^3H]ZM241385: at 4 °C, 100 nM radioligand
Method: An aliquot of E. coli cells (14 mL) was thawed on ice and resupended in 500 μL of buffer A [50 mM Tris–HCl (pH 7.4), 0.4 M NaCl, 250 μg/mL lysozyme (Sigma) and 1 mg/mL DNase I (Sigma), supplemented with complete ethylenediaminetetraacetic acid (EDTA)-free Protease inhibitor cocktail (Roche)] and incubated for 1 h at 4 °C. Samples were then sonicated for 1 min at 4 °C using a cup-horn sonicator. The receptors were solubilised by adding 1% DDM and incubated for 1 h at 4 °C. Insoluble material was removed by centrifugation (5 min, 13,000g, 4 °C). The solubilised receptors were partially purified with Ni-NTA agarose (Qiagen). Agarose beads (300 μL) pre-equilibrated in buffer A were added to 700 μL of solubilised receptor. […].
as §1

B1: GL10: A2AR mutant L48A-Q89A (protein, UniProt P29274 1-412, looked up, variant L48A Q89A)
Adenosine receptor A2a: MPIMGSSVYITVELAIAVLAILGNVLVCWAVWLNSNLQNVTNYFVVSAAAADIAVGVLAIPFAITISTGFCAACHGCLFIACFVLVLTASSIFSLLAIAIDRYIAIRIPLRYNGLVTGTRAKGIIAICWVLSFAIGLTPMLGWNNCGQPKEGKNHSQGCGEGQVACLFEDVVPMNYMVYFNFFACVLVPLLLMLGVYLRIFLAARRQLKQMESQPLPGERARSTLQKEVHAAKSLAIIVGLFALCWLPLHIINCFTFFCPDCSHAPLWLMYLAIVLSHTNSVVNPFIYAYRIREFRQTFRKIIRSHVLRQQEPFKAAGTSARVLAAHGSDGEQVSLRLNGHPPGVWANGSAPHPERRPNGYALGLVSGGSAQESQGNTGLPDVELLSHELKGVCPEPPGLDDPLAQDGAGVS
[^3H]NECA-bound A2AR
  Apparent Tm in DDM, Single measurement: 47.5 °C
[^3H]NECA-bound A2AR; [3H]NECA bound, DDM, from Fig. 2c
  Improvement in stability compared to WT based on t1/2 (decrease in rate of unfolding): 136 fold

B2: T65A: A2AR point mutant T65A (protein, UniProt P29274 1-412, looked up, variant T65A)
Adenosine receptor A2a: B1 Adenosine receptor A2a with A48L, T65A, A89Q
[^3H]ZM241385-bound A2AR
  Apparent Tm, Antagonist [^3H]ZM241385: 38 °C
  ΔTm, Antagonist [^3H]ZM241385: + 6 °C

B3: GL11: A2AR mutant L48A-S90A (protein, UniProt P29274 1-412, looked up, variant L48A S90A)
Adenosine receptor A2a: B1 Adenosine receptor A2a with A89Q, S90A
[^3H]NECA-bound A2AR
  Apparent Tm in DDM, Single measurement: 46 °C

B4: GL20: A2AR mutant L48A-Q89A-V12A (protein, UniProt P29274 1-412, looked up, variant L48A Q89A V12A)
Adenosine receptor A2a: B1 Adenosine receptor A2a with V12A
[^3H]NECA-bound A2AR
  Apparent Tm in DDM, Single measurement: 46 °C

B5: GL21: A2AR mutant L48A-Q89A-A54L (protein, UniProt P29274 1-412, looked up, variant L48A Q89A A54L)
Adenosine receptor A2a: B1 Adenosine receptor A2a with A54L
[^3H]NECA-bound A2AR
  Apparent Tm in DDM, Single measurement: 46 °C

B6: GL4: A2AR mutant L48A-A54L (protein, UniProt P29274 1-412, looked up, variant L48A A54L)
Adenosine receptor A2a: B1 Adenosine receptor A2a with A54L, A89Q
[^3H]NECA-bound A2AR
  Apparent Tm in DDM, Single measurement: 46 °C

B7: GL24: A2AR mutant L48A-Q89A-F79A (protein, UniProt P29274 1-412, looked up, variant L48A Q89A F79A)
Adenosine receptor A2a: B1 Adenosine receptor A2a with F79A
[^3H]NECA-bound A2AR
  Apparent Tm in DDM, Single measurement: 46 °C

B8: S90A: A2AR point mutant S90A (protein, UniProt P29274 1-412, looked up, variant S90A)
Adenosine receptor A2a: B1 Adenosine receptor A2a with A48L, A89Q, S90A
[^3H]ZM241385-bound A2AR
  Apparent Tm, Antagonist [^3H]ZM241385: 32 °C
  ΔTm, Antagonist [^3H]ZM241385: 0 °C

B9: A54L: A2AR point mutant A54L (protein, UniProt P29274 1-412, looked up, variant A54L)
Adenosine receptor A2a: B1 Adenosine receptor A2a with A48L, A54L, A89Q
[^3H]ZM241385-bound A2AR
  Apparent Tm, Antagonist [^3H]ZM241385: 38 °C
  ΔTm, Antagonist [^3H]ZM241385: + 6 °C

B10: GL6: A2AR mutant L48A-F62A (protein, UniProt P29274 1-412, looked up, variant L48A F62A)
Adenosine receptor A2a: B1 Adenosine receptor A2a with F62A, A89Q
[^3H]NECA-bound A2AR
  Apparent Tm in DDM, Single measurement: 45 °C

B11: GL15: A2AR mutant L48A-I238A (protein, UniProt P29274 1-412, looked up, variant L48A I238A)
Adenosine receptor A2a: B1 Adenosine receptor A2a with A89Q, I238A
[^3H]NECA-bound A2AR
  Apparent Tm in DDM, Single measurement: 42.5 °C

B12: GL25: A2AR mutant L48A-Q89A-T65A-A50L (protein, UniProt P29274 1-412, looked up, variant L48A Q89A T65A A50L)
Adenosine receptor A2a: B1 Adenosine receptor A2a with A50L, T65A
[^3H]NECA-bound A2AR
  Apparent Tm in DM, Single measurement: 44.5 °C

B13: GL14: A2AR mutant L48A-A236L (protein, UniProt P29274 1-412, looked up, variant L48A A236L)
Adenosine receptor A2a: B1 Adenosine receptor A2a with A89Q, A236L
[^3H]NECA-bound A2AR
  Apparent Tm in DDM, Single measurement: 40.5 °C

B14: F242A: A2AR point mutant F242A (protein, UniProt P29274 1-412, looked up, variant F242A)
Adenosine receptor A2a: B1 Adenosine receptor A2a with A48L, A89Q, F242A
[^3H]ZM241385-bound A2AR
  Binding of [^3H]ZM241385: did not bind

B15: GL1: A2AR mutant L48A-V12A (protein, UniProt P29274 1-412, looked up, variant L48A V12A)
Adenosine receptor A2a: B1 Adenosine receptor A2a with V12A, A89Q
[^3H]NECA-bound A2AR
  Apparent Tm in DDM, Single measurement: 45.5 °C

B16: Q89A: A2AR point mutant Q89A (protein, UniProt P29274 1-412, looked up, variant Q89A)
Adenosine receptor A2a: B1 Adenosine receptor A2a with A48L
[^3H]ZM241385-bound A2AR
  Apparent Tm, Antagonist [^3H]ZM241385: 26 °C
  ΔTm, Antagonist [^3H]ZM241385: − 8 °C

B17: GL9: A2AR mutant L48A-F83A (protein, UniProt P29274 1-412, looked up, variant L48A F83A)
Adenosine receptor A2a: B1 Adenosine receptor A2a with F83A, A89Q
[^3H]NECA-bound A2AR
  Apparent Tm in DDM, Single measurement: 43.5 °C

B18: GL17: A2AR mutant L48A-F242A (protein, UniProt P29274 1-412, looked up, variant L48A F242A)
Adenosine receptor A2a: B1 Adenosine receptor A2a with A89Q, F242A
[^3H]NECA-bound A2AR
  Apparent Tm in DDM, Single measurement: 39.5 °C

B19: F79A: A2AR point mutant F79A (protein, UniProt P29274 1-412, looked up, variant F79A)
Adenosine receptor A2a: B1 Adenosine receptor A2a with A48L, F79A, A89Q
[^3H]ZM241385-bound A2AR
  Binding of [^3H]ZM241385: did not bind

B20: F62A: A2AR point mutant F62A (protein, UniProt P29274 1-412, looked up, variant F62A)
Adenosine receptor A2a: B1 Adenosine receptor A2a with A48L, F62A, A89Q
[^3H]ZM241385-bound A2AR
  Binding of [^3H]ZM241385: did not bind

B21: F83A: A2AR point mutant F83A (protein, UniProt P29274 1-412, looked up, variant F83A)
Adenosine receptor A2a: B1 Adenosine receptor A2a with A48L, F83A, A89Q
[^3H]ZM241385-bound A2AR
  Apparent Tm, Antagonist [^3H]ZM241385: 16.5 °C
  ΔTm, Antagonist [^3H]ZM241385: − 15.5 °C

B22: GL19: A2AR mutant L48A-V282A (protein, UniProt P29274 1-412, looked up, variant L48A V282A)
Adenosine receptor A2a: B1 Adenosine receptor A2a with A89Q, V282A
[^3H]NECA-bound A2AR
  Apparent Tm in DDM, Single measurement: 40 °C

B23: GL29: A2AR mutant L48A-Q89A-T65A- S263A (protein, UniProt P29274 1-412, looked up, variant L48A Q89A T65A S263A)
Adenosine receptor A2a: B1 Adenosine receptor A2a with T65A, S263A
[^3H]NECA-bound A2AR
  Apparent Tm in DM, Single measurement: 44.5 °C

B24: GL22: A2AR mutant L48A-Q89A-F62A (protein, UniProt P29274 1-412, looked up, variant L48A Q89A F62A)
Adenosine receptor A2a: B1 Adenosine receptor A2a with F62A
[^3H]NECA-bound A2AR
  Apparent Tm in DDM, Single measurement: 45.5 °C

B25: GL7: A2AR mutant L48A-T65A (protein, UniProt P29274 1-412, looked up, variant L48A T65A)
Adenosine receptor A2a: B1 Adenosine receptor A2a with T65A, A89Q
[^3H]NECA-bound A2AR
  Apparent Tm in DDM, Single measurement: 45 °C

B26: V57A: A2AR point mutant V57A (protein, UniProt P29274 1-412, looked up, variant V57A)
Adenosine receptor A2a: B1 Adenosine receptor A2a with A48L, V57A, A89Q
[^3H]ZM241385-bound A2AR
  Apparent Tm, Antagonist [^3H]ZM241385: 38 °C
  ΔTm, Antagonist [^3H]ZM241385: + 6 °C

B27: GL27: A2AR mutant L48A-Q89A-T65A-F83A (protein, UniProt P29274 1-412, looked up, variant L48A Q89A T65A F83A)
Adenosine receptor A2a: B1 Adenosine receptor A2a with T65A, F83A
[^3H]NECA-bound A2AR
  Apparent Tm in DM, Single measurement: 44 °C

B28: GL8: A2AR mutant L48A-F79A (protein, UniProt P29274 1-412, looked up, variant L48A F79A)
Adenosine receptor A2a: B1 Adenosine receptor A2a with F79A, A89Q
[^3H]NECA-bound A2AR
  Apparent Tm in DDM, Single measurement: 45.5 °C

B29: GL5: A2AR mutant L48A-V57A (protein, UniProt P29274 1-412, looked up, variant L48A V57A)
Adenosine receptor A2a: B1 Adenosine receptor A2a with V57A, A89Q
[^3H]NECA-bound A2AR
  Apparent Tm in DDM, Single measurement: 41.5 °C

B30: GL26: A2AR mutant L48A-Q89A-T65A-A54L (protein, UniProt P29274 1-412, looked up, variant L48A Q89A T65A A54L)
Adenosine receptor A2a: B1 Adenosine receptor A2a with A54L, T65A
[^3H]NECA-bound A2AR
  Apparent Tm in DM, Single measurement: 46 °C
[^3H]NECA-bound A2AR; DM
  Increase in stability versus WT receptor in DM: 21.5 °C

— paper PMC3145977, “Thermostabilisation of an Agonist-Bound Conformation of the Human Adenosine A2A Receptor” (Journal of Molecular Biology, 2011)
